Source: PMC7101349 (2020)
Numbering of substitutions follows the chain as printed. Names and notes keep the numbering of the source. Like-named read-outs stand apart in the source and are kept apart here.

B1: sAB BAK5 (Fab, V domains shown)
VH: EVQLVESGGGLVQPGGSLRLSCAASGFNVRSFSIHWVRQAPGKGLEWVAYISSSSGSTSYADSVKGRFTISADTSKNTAYLQMNSLRAEDTAVYYCARWGYWPGEPWWKAFDYWGQGTLVTVSS
VL: DIQMTQSPSSLSASVGDRVTITCRASQSVSSAVAWYQQKPGKAPKLLIYSASSLYSGVPSRFSGSRSGTDFTLTISSLQPEDFATYYCQQYLYYSLVTFGQGTKVEIK
B2: sAB24 (Fab, V domains shown)
VH: B1 VH with V29F, R30S, F32S
VL: B1 VL
B3: BAG2 S36A (Fab, V domains shown)
VH: B1 VH with R30V, S31D, S33A, I34L
VL: B1 VL
B4: BAG2 F35A (Fab, V domains shown)
VH: B1 VH with R30V, S31D, F32A, I34L
VL: B1 VL
B5: sAB BAG2 (Fab, V domains shown)
VH: B1 VH with R30V, S31D, I34L
VL: B1 VL

Key:
Test in all cases: SPR
[1] = molecular target: T1, His10-BRIL (UniProt P0ABE7 30-123)
[2] = molecular target: T1, His10-BRIL; remark: listed apart in the source
[3] = molecular target: T1, His10-BRIL; remark: listed apart in the source
[4] = molecular target: T1, His10-BRIL; remark: listed apart in the source

Row | Binder | Kd [1] [nM] | koff [3] [s⁻¹] | further results
1 | B1 | 0.175 | – | –
2 | B2 | – | – | koff [2]: 0.0008 s⁻¹
3 | B3 | – | 0.00037 | –
4 | B4 | – | 0.00028 | –
5 | B5 | 0.269 | – | koff [4]: 0.00013 s⁻¹
